Data taken from patent publication US20240343781A1 (published 2024).

Target: SARS-COV-2 D614G spike trimer (SARS-CoV-2, UniProt P0DTC2 14-1208)
Experiment: SPR

B1: engineered monoclonal antibody 12-19 (antibody, V domains shown)
VH: QVQLVESGGGVVQPGRSLRLSCEASGFTFNTYDMHWARQAPGKGLEWVAVIWYDGSNKFYADSVKGRFTISRDNSKNTLYLQMNSLRAEDTAVYYCARDRTPVYDILTGYYWPPPRVDGMDVWGQGTTVTVSS
VL: DNVMTQTPFSLSVTPGQPASISCKSSQSLLHSDGKTYLYWYLQKPGQSPQLLIYEVSNRFSGVPERFSGSGSGTDFTLKISRVEAEDVGVYYCMQSIQLPFTFGQGTKLEIK
Kd: 9.35 nM

B2: engineered monoclonal antibody 12-16 (antibody, V domains shown)
VH: QVQLVESGGGVVQPGRSLRLSCAASGFTFSNYGMHWVRQAPGKGLEWVAIISFDGSNRYYADSVKGRFTISRDNSKNTLYLQMDSLRAEDTAVYYCAKDLSFYYDISTGYYPQSYNSGTDVWGQGTTVTVSS
VL: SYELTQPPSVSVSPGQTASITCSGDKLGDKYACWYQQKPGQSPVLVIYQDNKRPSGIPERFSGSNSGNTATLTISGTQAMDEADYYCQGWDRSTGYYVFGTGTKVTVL
Kd: 1.6 nM
